According to patent US20190300590A1 (PROTAGONIST THERAPEUTICS, published 2019):
Like-named read-outs stand apart in the source and are kept apart here. *1 amine or outer side, *2 acyl side, *3 side chain or, on linkers, in order; H or OH if unused. Bridges are numbered along the chain shown (N, C = ends). Primed or numbered codes have the meaning given here. [ ]: non-standard residue; d: D form. Phe(4-OMe)(3) = O-methyl-L-tyrosine (4-methoxy-L-phenylalanine), COc1ccc(C[C@H](N[*:1])C(=O)[*:2])cc1; Phe(4-Oallyl) = 4-allyloxy-phenylalanine (O-allyl-tyrosine), C=CCOc1ccc(C[C@H](N[*:1])C(=O)[*:2])cc1; Phe(4-OMe) = 4-methoxy-L-phenylalanine (O-methyl-L-tyrosine), COc1ccc(C[C@H](N[*:1])C(=O)[*:2])cc1; Phe(Bzl) = read as Phe(4-OBzl), O-benzyl-L-tyrosine, O=C([C@H](Cc1ccc(OCc2ccccc2)cc1)N[*:1])[*:2]; Phe(4-OMe)″ = 4-methoxyphenylalanine, COc1ccc(C[C@H](N[*:1])C(=O)[*:2])cc1; Phe(4-guanidino) = N=C(N)Nc1ccc(C[C@H](N)C(=O)O)cc1; Phe(4-CONH2) = NC(=O)c1ccc(C[C@H](N)C(=O)O)cc1; Phe(4-COOH) = N[C@@H](Cc1ccc(C(=O)O)cc1)C(=O)O; Phe(2,4-Me2) = Cc1ccc(C[C@H](N)C(=O)O)c(C)c1; Phe(4-Me) = Cc1ccc(C[C@H](N)C(=O)O)cc1; 1Nal = N[C@@H](Cc1cccc2ccccc12)C(=O)O; 2Nal = N[C@@H](Cc1ccc2ccccc2c1)C(=O)O; AEF = NCCOc1ccc(C[C@H](N)C(=O)O)cc1; αMeF = C[C@](N)(Cc1ccccc1)C(=O)O; 4Pal = N[C@@H](Cc1ccncc1)C(=O)O; Cha = N[C@@H](CC1CCCCC1)C(=O)O; αMeOrn = C[C@](N)(CCCN)C(=O)O; αMeK = C[C@](N)(CCCCN)C(=O)O; Abu = CC[C@H](N)C(=O)O

T1: IL23R_huFC (human, UniProt Q5VWK5 24-353)
T1 sequence (looked up): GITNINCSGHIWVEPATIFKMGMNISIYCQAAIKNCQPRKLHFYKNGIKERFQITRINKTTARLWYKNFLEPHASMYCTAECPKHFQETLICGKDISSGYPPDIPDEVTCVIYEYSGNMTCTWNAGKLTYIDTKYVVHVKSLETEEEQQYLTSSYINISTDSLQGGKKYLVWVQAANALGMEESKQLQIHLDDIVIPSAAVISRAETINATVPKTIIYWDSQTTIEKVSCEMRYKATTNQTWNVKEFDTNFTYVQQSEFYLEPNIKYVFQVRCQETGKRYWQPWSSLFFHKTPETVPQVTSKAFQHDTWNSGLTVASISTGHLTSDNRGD

T2: IL-23R on human cells (IL-23R-expressing DB cells; human NK cells) (human, UniProt Q5VWK5 24-629)
T2 sequence (looked up): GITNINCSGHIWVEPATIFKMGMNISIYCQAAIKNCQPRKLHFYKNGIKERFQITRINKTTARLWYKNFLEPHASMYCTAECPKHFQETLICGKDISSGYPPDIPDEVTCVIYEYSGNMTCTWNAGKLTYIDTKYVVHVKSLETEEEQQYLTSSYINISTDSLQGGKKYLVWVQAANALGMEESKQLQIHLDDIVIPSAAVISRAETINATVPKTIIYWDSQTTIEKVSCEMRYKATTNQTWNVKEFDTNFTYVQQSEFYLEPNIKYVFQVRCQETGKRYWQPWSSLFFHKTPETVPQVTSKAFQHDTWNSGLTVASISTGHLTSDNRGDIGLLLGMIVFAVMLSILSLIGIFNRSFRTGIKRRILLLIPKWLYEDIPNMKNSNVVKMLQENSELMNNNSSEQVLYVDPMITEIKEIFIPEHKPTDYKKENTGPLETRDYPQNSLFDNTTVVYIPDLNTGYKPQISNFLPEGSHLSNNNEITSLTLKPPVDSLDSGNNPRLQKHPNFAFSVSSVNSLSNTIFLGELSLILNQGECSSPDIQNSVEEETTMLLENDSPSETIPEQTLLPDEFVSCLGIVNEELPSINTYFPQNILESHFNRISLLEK

B1: Ac-Cyclo-[[Abu]-QT-[Phe(2,4-Me2)]-QC]-[Phe[4-(2-aminoethoxy)]]-[2-Nal]-[α-MeLys]-ENG-NH2 (peptide)
peptide: Ac-[Abu]QT[Phe(2,4-Me2)]QC[AEF][2Nal][αMeK]ENG-NH2
modifications: thioether 1-6
B2: Ac-Cyclo-[[Abu]-QT-[α-MePhe]-QC]-[Phe[4-(2-aminoethoxy)]]-[2-Nal]-[α-MeLys]-ENG-NH2 (peptide)
peptide: Ac-[Abu]QT[αMeF]QC[AEF][2Nal][αMeK]ENG-NH2
modifications: thioether 1-6
B3: Ac-Cyclo-[[Abu]-QTWQC]-[4-Pyridylalanine]-[2-Nal][α-MeLys]-[Lys(Ac)]-NG-NH2 (peptide)
peptide: Ac-[Abu]QTWQC[4Pal][2Nal][αMeK]K(Ac)NG-NH2
modifications: thioether 1-6
B4: Ac-Cyclo-[[Abu]-QTWQC]-[Phe(4-OMe)]-[1-Nal]-[α-MeLys]-ENG-NH2 (peptide)
peptide: Ac-[Abu]QTWQC[Phe(4-OMe)][1Nal][αMeK]ENG-NH2
modifications: thioether 1-6
B5: Ac-Cyclo-[[Abu]-QTWQC]-[Phe(4-OMe)]-[2-Nal]-[α-MeLys]-VNG-NH2 (peptide)
peptide: Ac-[Abu]QTWQC[Phe(4-OMe)][2Nal][αMeK]VNG-NH2
modifications: thioether 1-6
B6: Ac-Cyclo-[[Abu]-QTWQC]-[Phe(4-OMe)]-[2-Nal][α-MeLys]-[Lys(Ac)]-QG-NH2 (peptide)
peptide: Ac-[Abu]QTWQC[Phe(4-OMe)(3)][2Nal][αMeK]K(Ac)QG-NH2
modifications: thioether 1-6
B7: Ac-Cyclo-[[Abu]-QTWQC]-[Phe(4-OMe)]-W-[α-MeLys]-ENG-NH2 (peptide)
peptide: Ac-[Abu]QTWQC[Phe(4-OMe)]W[αMeK]ENG-NH2
modifications: thioether 1-6
B8: Ac-Cyclo-[[Abu]-QTWQC]-[Phe(4-OMe)]-Phe(4-Me)-[α-MeLys]-ENG-NH2 (peptide)
peptide: Ac-[Abu]QTWQC[Phe(4-OMe)″][Phe(4-Me)][αMeK]ENG-NH2
modifications: thioether 1-6
B9: Ac-Cyclo-[[Abu]-QTWQC]-[Phe(4-OMe)]-[Phe(4-Oallyl)]-[α-MeLys]-ENG-NH2 (peptide)
peptide: Ac-[Abu]QTWQC[Phe(4-OMe)(3)][Phe(4-Oallyl)][αMeK]ENG-NH2
modifications: thioether 1-6
B10: Ac-Cyclo-[[Abu]-QTWQC]-[Phe(4-OMe)]-[Phe(4-guanidino)]-[α-MeLys]-ENG-NH2 (peptide)
peptide: Ac-[Abu]QTWQC[Phe(4-OMe)(3)][Phe(4-guanidino)][αMeK]ENG-NH2
modifications: thioether 1-6
B11: Ac-Cyclo-[[Abu]-QTWQC]-[Phe(4-OMe)]-[Phe(Bzl)]-[α-MeLys]-ENG-NH2 (peptide)
peptide: Ac-[Abu]QTWQC[Phe(4-OMe)(3)][Phe(Bzl)][αMeK]ENG-NH2
modifications: thioether 1-6
B12: Ac-Cyclo-[[Abu]-QTWQC]-[Phe[4-(2-aminoethoxy)]]-[Phe(4-CO2H)]-[α-MeLys]-[Lys(Ac)]-NG-NH2 (peptide)
peptide: Ac-[Abu]QTWQC[AEF][Phe(4-COOH)][αMeK]K(Ac)NG-NH2
modifications: thioether 1-6
B13: Ac-Cyclo-[[Abu]-QTWQC]-[Phe[4-(2-aminoethoxy)]]-[Phe(4-CONH2)]-[α-MeLys]-[Lys(Ac)]-NG-NH2 (peptide)
peptide: Ac-[Abu]QTWQC[AEF][Phe(4-CONH2)][αMeK]K(Ac)NG-NH2
modifications: thioether 1-6
B14: Ac-Cyclo-[[Abu]-QTWQC]-[Phe(4-OMe)]-W-[α-MeOrn]-ENG-NH2 (peptide)
peptide: XQTWQCFWXENG
modifications: as bracketed in name; thioether cyclo
B15: Ac-Cyclo-[[Abu]-QTWQC-YW-[α-MeOrn]-[Lys(Ac)]-NG-NH2 (peptide)
peptide: XQTWQCYWXKNG
modifications: as bracketed in name; thioether cyclo
B16: Ac-Cyclo-[[Abu]-QTWQC]-[Phe[4-(2-aminoethoxy)]]-W-[α-Me-Orn]-[Lys(Ac)]-NG-NH2 (peptide)
peptide: Ac-[Abu]QTWQC[AEF]W[αMeOrn]K(Ac)NG-NH2
modifications: thioether 1-6
B17: Ac-Cyclo-[[Abu]-QTWQC]-[Phe(4-OMe)]-[2-Nal]-[α-MeOrn]-ENG-NH2 (peptide)
peptide: XQTWQCFXXENG
modifications: as bracketed in name; thioether cyclo
B18: Ac-Cyclo-[[Abu]-QTWQC]-[Phe(4-OMe)]-[2-Nal]-[Cha]-[Lys(Ac)]-NG-NH2 (peptide)
peptide: Ac-[Abu]QTWQC[Phe(4-OMe)][2Nal][Cha]K(Ac)NG-NH2
modifications: thioether 1-6
B19: Ac-Cyclo-[[Abu]-QTWQC]-[Phe(4-OMe)]-[2-Nal]-[Orn]-[Lys(Ac)]-NG-NH2 (peptide)
peptide: XQTWQCFXXKNG
modifications: as bracketed in name; thioether cyclo
B20: Ac-Cyclo-[[Abu]-QTWQC]-[Phe[4-(2-aminoethoxy)]]-[2-Nal]-[Orn]-[Lys(Ac)]-NG-NH2 (peptide)
peptide: XQTWQCFXXKNG
modifications: as bracketed in name; thioether cyclo

Legend:
IL23R_huFC [1] = target: T1, IL23R_huFC; test: human ELISA vs IL-23
Rat IL-23R_huFC = Rat IL-23R_huFC (rat); test: rat ELISA vs IL-23
IL23R_huFC [2] = target: T1, IL23R_huFC; test: human ELISA vs IL-23; remark: listed apart in the source
[3] = target: T2, IL-23R on human cells …; test: cell-based or functional assay
IL23R_huFC [4] = target: T1, IL23R_huFC; test: human ELISA vs IL-23; remark: listed apart in the source

| Binder | IC50 (IL23R_huFC [1]) | IC50 (Rat IL-23R_huFC) | also measured |
| --- | --- | --- | --- |
| B1 | 100 to 1000 nM |  |  |
| B2 | 100 to 1000 nM |  |  |
| B3 | 100 to 1000 nM |  |  |
| B4 |  | 25 to 100 nM | IC50 (IL23R_huFC [2]): 25 to 100 nM |
| B5 |  | 25 to 100 nM | pStat3 HTRF IC50 [3]: < 10 nM; IC50 (IL23R_huFC [2]): 25 to 100 nM |
| B6 |  | 25 to 100 nM | pStat3 HTRF IC50 [3]: < 10 nM; IC50 (IL23R_huFC [2]): 25 to 100 nM |
| B7 |  | 25 to 100 nM |  |
| B8 | 100 to 1000 nM |  |  |
| B9 | 100 to 1000 nM |  |  |
| B10 | 100 to 1000 nM |  |  |
| B11 | 100 to 1000 nM |  |  |
| B12 | 100 to 1000 nM |  |  |
| B13 | 100 to 1000 nM |  |  |
| B14 |  | 25 to 100 nM | pStat3 HTRF IC50 [3]: < 10 nM; IC50 (IL23R_huFC [2]): 25 to 100 nM |
| B15 |  | 25 to 100 nM |  |
| B16 |  |  | IC50 (IL23R_huFC [4]): 10 to 25 nM |
| B17 |  | 25 to 100 nM |  |
| B18 |  | 25 to 100 nM | pStat3 HTRF IC50 [3]: < 10 nM; IC50 (IL23R_huFC [2]): 25 to 100 nM |
| B19 | 100 to 1000 nM |  |  |
| B20 |  |  | IC50 (IL23R_huFC [4]): 10 to 25 nM |
